The target of data set [1] is WT-ZnF-KLF1 (mouse, UniProt P46099 275-358). The experiment in a line: EMSA. Background: Mobility shift assays separate free from complexed probe on a gel.
In data set [2] the target is CDA-ZnF-KLF1 (mouse, UniProt P46099 275-358, E321K). Put plainly: EMSA.
Sequence of CDA-ZnF-KLF1 (P46099 275-358 E321K): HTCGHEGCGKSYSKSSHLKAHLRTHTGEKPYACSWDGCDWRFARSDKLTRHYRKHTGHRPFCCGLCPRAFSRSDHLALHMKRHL

Sequence of WT-ZnF-KLF1 (P46099 275-358): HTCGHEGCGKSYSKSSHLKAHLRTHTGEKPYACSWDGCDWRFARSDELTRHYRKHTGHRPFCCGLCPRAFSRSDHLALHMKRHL

B1: 9xG (CDA-GGG) (dsDNA)
DNA 1: AGCTAAGGGGGGGGGCA
DNA 2: AGCTTGCCCCCCCCCTT
Broadly, the Kd is the concentration at which binding is half-saturated. Low values mean higher affinity, high ones lower affinity. Turning to B1, the Kd in data set [1] was about 4990 nM; in data set [2] it was 696 ± 71.1 nM.
